The target in experiment [1] is CASV L-Cterm (C-terminal 326 amino acids of the California Academy of Sciences virus L protein, residues 1721-2046) (California Academy of Sciences virus (CASV)) (UniProt J7HBG8). The experiment can be described thus: SEC.
For experiment [2] the target is unchanged. As to the kind of experiment: SAXS.
In experiment [3] the target is isolated CASV L-Cterm domain 2 (California Academy of Sciences virus (CASV)). As to the kind of experiment: SAXS.

Turning to “CASV L-Cterm (C-terminal 326 amino acids of the California Academy of Sciences virus L protein, residues 1721-2046) (from UniProt J7HBG8 1721-2046) (domain or fragment)”, the stoichiometry N in experiment [1] and in experiment [2] was 2 in each case.
“isolated CASV L-Cterm domain 2 (domain or fragment)”: in experiment [3], the stoichiometry N is 2.

As a reminder, the stoichiometry N is the number of molecules, sites or subunits per partner or assembly.

The values are drawn from publication PMC5444859.
